Results on 30 sequences are retold here after the nanobody polyreactivity screen of Harvey et al. (2022).

This data set is described as follows: yeast display, Sf9 membrane polyspecificity reagent, FACS + sequencing; frameworks hold sequencing errors. A digest of the protocol: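 Galactose-induced (36–48 hours) yeast carrying a synthetic nanobody display library were exposed to 10% biotinylated, detergent-solubilized Sf9 membrane reagent at 4 °C for 1 hour. FACS followed streptavidin microbead enrichment, using low and high (top ~1%) gates for expression (anti-HA) and reagent binding (streptavidin). Colony PCR, MiSeq 2 × 250 sequencing and CDR-length filtering followed. Labels for polyreactivity reflect the gate of origin.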
On to “QVQLVESGVGVVQAGGSLRLSCAASGRTFLRYTMGGYRQAPGKEREFVAAISYDTSSTYYADSVKGRFTISRDNAKNTVYLQMNSLKPEDTAVYYCAATLSRVSLSYGYWGLGTQVTVSS”, for which the “polyreactivity (PSR sort gate)” value is on record as “low polyreactivity”.

With “QVQLVDSGGGLVQAGVSLRISCAASGIIIRYYGMGWYRQAPGKERELVARIRWTGGSTYYADSVKGRFTISRYNAKNTVYLQMNSLKQEETAVYYCAADIWQYSRIANSHPYDYWGQGTQVTVSS”, the “polyreactivity (PSR sort gate)” value was “low polyreactivity”. With “QVQLVESGGGLVQAGGSLRLRCAASGRNFGDNRMGWYRQAPGKERELVTYAYSVKGRFTISRDNAKNTVYLQMNSLKPEDTSVYYCNTDPQRFSGLDENYWGQGTQVTVSS”, the “polyreactivity (PSR sort gate)” value is on record as “low polyreactivity”. The value for “QVQLVESGGGLVQAGGILRLSCAASGRTFAYNTMGWYRQAPGKERQLVAAISSDGSTNYADSVKGRFTISRDNAKNTVYLQMNSLKPEDTAVYYCAKGEGTGTSDTQVYEHDYWGQGTQVTVSS” was “low polyreactivity”; that for “QVQLEESGGGLVQAGGSLRLSCAASGNTSPVNAMGWYRQAPGKERELVAAITQSGGSTYYADSLKGRFTISRDNAKITVYFQMNSLKPQDTAVYYCAADVLGPQYWWYDYWGQGTQVTVSS” was “low polyreactivity”; that for “QVKLVESGGGLVQAGGSLRLSCADSGSIFWTYAIVWYRHAPGKERELVAAINSSDGTYYADSVKGRFTISRDNAKNTVYLQMNSLKPEDTAVYYCNADRDALFGYDYDYWGQGTQVTVSS” was “low polyreactivity”. The value for “QVQLVESGGGLVQAGGSLRISCAASGSTFNINAMGWYRQAPGKERELVAAIRYRGGSTNYADSVKGRFTISRDNAKNNVYLQMNSLKPEDTAVYYCAATYSRHTNGYSKYCYWGQGTQVTVSS” was “high polyreactivity”; that for “QVQLVESGGGLVQAGGSLRLSCAPSGRTFCPYAMGWYRKAPGKERELVAAISSSGSTTYYADSVKGRFTISRDNAKNTVYLQMNSLKPEDNAVYYCAAVYLRGDGEYDYWGQVTQVTVSS” was “low polyreactivity”. The value for “QVQHVESGGGLVQAGGSLRLSCAASGFTFKFYTMGWYRQAPGKERELVAAISRSGGTTYYADSVKGRFTISRDNAKNTVYLQMTSLKPEDTAVYYCAAPRTKYLSKYGYWGQGTQVTVSS” was “high polyreactivity”; that for “QVQLVESGGGLVQAGGSLRLSCAASGGTFRNNAMGWYIQAPGKERELVAAISSSGTSTYYADSVKGRFTISRDNAKNTVYLQMNSLKPEDTAVYYCNADALGSPWWDHMDYWGQGTQVTVSS” was “low polyreactivity”; that for “QVQLVESGGGLVQAGGSLRLSCAASGRTFRQNVMGWYRQAPGKERELVAAITASGGNTYYADSVKGRFTISRDNAKNTVYLQMNSLKPEDTAVYYCNAVPYLAMDYWGQGTQVTVSS” was “high polyreactivity”. As to “QVQLVESGGGLVQAGGSLRLSCAASGSTFTTYAMGWYRQAPGKERELVAVITDSGGTYYADSVQGRFTISRDNAKNTVYLQMNSLKPEDTAVYYCNRVFPPTDYEFDSWGQGTQVTVSS”, the “polyreactivity (PSR sort gate)” value is “low polyreactivity”.

As for “QVQLVESGGGLVHAGGSLRLSCAASGSIYPYYAMGWYRQAPGKERELVAVISRGGVRTYYADSVKGRFTISRDNAKNTVYLQMNSLKTEDTAVYYCAAGYPYGVDYWGQGTQVTVSS”, the “polyreactivity (PSR sort gate)” value is recorded as “high polyreactivity”.

Consider “QVQLVESGGGLVQAGGSLRLSCAASGSIFPHNAMGWYRQAPGKERELVAAISVSRGSTYYADSVKGRFTISRDNAKNTVYLQMNSLKPEDTAVYYCAAYAYGGRINGYRTYRYNYWGQGTQVTVSS”, for which the “polyreactivity (PSR sort gate)” value is given as “high polyreactivity”.

For the sequence “QVQLVESGGGLVQAGGSLRLSCAASGSTFPVYAMGWYRQAPGKERELVATISYSGGSTNYADSVKGRFTISRDNAKNTVYLQMNSLKPEDTAVYYCAKRYKRYVYWRSHGDYNYWGQGTQVTVSS”, the “polyreactivity (PSR sort gate)” value is “high polyreactivity”. The value for “QVQLVESGGGLVQAGGSLRLSCAASGIILDEYAMGWYRQAPGKERELVAAITWIGGSTYADSVKGRFTISRDNAKNTVYLQMNSLKPEDTAVYYCAADYPSLYVWYGYGWYKYDYWGQGTQVTVSS” was “low polyreactivity”. The value for “QVQLVESGGGLVQAGGSLRLSCAASGMTLGSYAMGWDRQAPGKERELVAAISRRSGRTYYADSVKGRFTISRDNAKNTVYLKMNSLKPEDTAVFYCNRGYTAQVYTEFDDWGQGTQVTVSS” was “low polyreactivity”; that for “QVQLVESGGGLVQAGGSLRLSCAASGITFPNYTMGWYRQAPWKERELLAAISYNGGGTYYADSVNGRFTISRYKAKNTVYVQKNSLKPEDTAVYYCAALGLYGDYLRYDYWGQGTQVSVSS” was “high polyreactivity”; that for “QVQLVESGGGLVQAGGSLRLSCAASGSTLVGYVMGWYRQAPGKERELVAAITTVGSTYYADSVKGRFTISRDNAKNTVYLQMNSLKPEDTAVYYCNAVRAYVDLRTGHFRGDYWGQGTQVTVSS” was “low polyreactivity”. The value for “QVQLVESGGGLVQAGGSLRLSCAASGITFYGNAMGLYRQAPGKERELVANTYYADSVKGRFTISRDNAKNTVYLQMNSLKPEDTAVYYCANRNARYRSLPPGYDYWGLGTQVTVSS” was “low polyreactivity”; that for “QVQLVESGGGLVQAGGSLRLSCAASGSIFGAYTMGGYRQAPGKERELVAAITWSGGCTYYADSVKGRFTISRDNAKNTVYLQMNSLKPEDTAVYYCAAVFLRARYKYNYWGQGTQVTVSS” was “high polyreactivity”; that for “QVQLVESGGGLVQAGGSLRLSCAASGRTFFIYAMGWYRQAPGKERELVARITGGGRTYYADSVKGRFTISRDNAKNTVYLQMNSLKPEDTAVYYCAKRSYVTYPPYDYWGQGSQVTVSS” was “high polyreactivity”.

On to “QVQLHESGGGLVQAGGSLRLSCAASGTISVTYNMGWYRQAPGKEREFVAGNSTGATTNYADSVKDRFTISRDNAKNTLYLQMNRLKPEDTAVYYCAAHIYRQDHFYYWGQGTQVTVSS”, for which the “polyreactivity (PSR sort gate)” value was “low polyreactivity”.

Regarding “QVQLVESGGGLVQAGGSLRLSCAASGSIFAKYAMGWYRQAPGKEREFVAAIRASGGRTYYADSVKGRFTISRDNAKNTVYLKMNSLKPEDTAFYYCASDVSYRAGFDYWGQGTQVTVSS”, the “polyreactivity (PSR sort gate)” value is listed as “high polyreactivity”. Consider “QVQLGESGGGLVQSGGSLRLSCAASGYIFNHNAMGWYRQAPGKEWELVAGISIGGSTYYADSVKGRFTISRDNAKNTVYLQMNRLIPEDTAVYYCNTQPPLIYRGVKSDYSGQGTQVTVSS”, for which the “polyreactivity (PSR sort gate)” value was “low polyreactivity”. For “QVQLVETGGGLVQAGGSLRLSCAASGSIFYYNTMGWYRQAPGKERELVAAISRSGTSTFYADSVKGRFTISRHNAKNTVYLQMNSLKPEDTAVYYCNAESLGWYRLYTVDYWGQGTQVTVSS”, the “polyreactivity (PSR sort gate)” value was “low polyreactivity”. The value for “QVQLVESGGGLVQAGGSLRLSCAASGFTFGSNAMGWYRQAPGKERELVAAISWSGGRTYYADSVKGRFTISRDNAKNTVYLQMNSLKPEDTAVYYCNKQYVKPWYRGYYYWGQGTQVNVSS” was “high polyreactivity”. The value for “QVQLVESGGGLVQAGGSLRLSCAASGSIFSVYAMGWYRQAPGTERELVAGITRNGGTTYYADSVKGRFTISRDNAKHTVYLQMNSLKPEDTAVYYCAADNGFPEYGVNRVWSRYDYWGQGTQVTVSS” was “low polyreactivity”. The value for “QVQLVESGGGLVQAGGSLRLSCAASGSTFYKYAMGWYRPAPGKERELVAAISRGGSTYYADSVKGRFTISRDNAKNTVYLQMNSLKPEDTAVYYCAALYGLGRPQDSTFLFDYWGQGTQVTVSS” was “low polyreactivity”; that for “QVQLVESGGGLVQAGGSLRLSCAASGNIFQAYAMGWSRQAPGKERELVATIRTYADYVKGRFTISRDNAKNTVYLQMNSLKPEDTAVYYCAAQNAMYYDSYSGYDSWGQGTQVTVSS” was “low polyreactivity”.
